Results reported in article PMC9980132 (bioRxiv, 2023).

T1: BAP1 (full-length human BAP1, residues 1-729) (human, UniProt Q92560 1-729)
T1 sequence: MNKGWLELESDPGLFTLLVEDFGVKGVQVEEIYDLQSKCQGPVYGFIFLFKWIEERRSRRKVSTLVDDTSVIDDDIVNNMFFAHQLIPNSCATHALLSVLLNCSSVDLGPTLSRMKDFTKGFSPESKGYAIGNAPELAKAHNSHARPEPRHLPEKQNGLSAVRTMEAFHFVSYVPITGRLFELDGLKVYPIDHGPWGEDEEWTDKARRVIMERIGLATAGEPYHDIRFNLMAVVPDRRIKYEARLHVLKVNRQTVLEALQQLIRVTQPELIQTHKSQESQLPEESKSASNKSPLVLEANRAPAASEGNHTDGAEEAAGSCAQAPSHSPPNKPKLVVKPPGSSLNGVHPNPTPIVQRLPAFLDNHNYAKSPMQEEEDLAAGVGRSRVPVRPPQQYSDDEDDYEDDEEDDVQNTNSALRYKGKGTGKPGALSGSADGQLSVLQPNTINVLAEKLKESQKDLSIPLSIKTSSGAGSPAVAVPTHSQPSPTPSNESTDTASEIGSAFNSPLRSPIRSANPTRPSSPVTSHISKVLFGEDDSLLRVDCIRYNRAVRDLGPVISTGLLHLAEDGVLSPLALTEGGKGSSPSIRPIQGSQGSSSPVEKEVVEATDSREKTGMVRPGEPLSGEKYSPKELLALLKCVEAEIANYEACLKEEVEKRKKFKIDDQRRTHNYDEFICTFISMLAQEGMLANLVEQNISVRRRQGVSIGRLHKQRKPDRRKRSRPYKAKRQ


Assays:
[1] = molecular target: H2AK119Ub nucleosome (non-hydrolyzable, 187 bp Widom 601 DNA) (Xenopus | not stated) (UniProt P0CG48)
[2] = molecular target: T1, BAP1 (full-length human BAP1, residues …); assay: cryo-EM structure

Chain of H2AK119Ub nucleosome (non-hydrolyzable, 187 bp Widom 601 DNA) (Xenopus | not stated) (P0CG48 whole entry, looked up): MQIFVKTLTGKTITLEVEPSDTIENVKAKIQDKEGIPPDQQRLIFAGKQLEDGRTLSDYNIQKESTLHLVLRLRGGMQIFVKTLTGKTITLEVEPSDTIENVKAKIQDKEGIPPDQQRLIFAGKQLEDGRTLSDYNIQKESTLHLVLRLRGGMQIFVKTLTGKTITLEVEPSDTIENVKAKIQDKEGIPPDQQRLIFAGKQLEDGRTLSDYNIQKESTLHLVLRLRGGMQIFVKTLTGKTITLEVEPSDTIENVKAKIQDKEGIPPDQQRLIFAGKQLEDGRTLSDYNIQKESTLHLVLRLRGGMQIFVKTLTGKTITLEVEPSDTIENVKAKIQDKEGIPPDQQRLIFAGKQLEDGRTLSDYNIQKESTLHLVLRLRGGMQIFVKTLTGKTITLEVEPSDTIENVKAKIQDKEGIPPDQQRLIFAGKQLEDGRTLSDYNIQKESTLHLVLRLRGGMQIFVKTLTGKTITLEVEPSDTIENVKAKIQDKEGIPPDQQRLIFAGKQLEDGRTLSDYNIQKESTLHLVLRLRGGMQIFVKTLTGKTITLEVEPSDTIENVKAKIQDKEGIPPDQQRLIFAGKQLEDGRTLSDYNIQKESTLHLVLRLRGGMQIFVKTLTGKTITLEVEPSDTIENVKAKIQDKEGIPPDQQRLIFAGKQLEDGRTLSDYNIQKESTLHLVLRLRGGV

Molecule	kcat (turnover number) of deubiquitination of the H2AK119ub1 designer nucleosome [1] [s⁻¹]	binding result [2]
BAP1 R56A/R57A/R59A/R60A in complex with wild-type ASXL1 DEUBAD (from UniProt Q92560;Q8IXJ9)	0.015	
ASXL1 DEUBAD domain (residues 237-390) (domain or fragment) PATGQMKRNRGEEIDFETPGSILVNTNLRALINSRTFHALPSHFQQQLLFLLPEVDRQVGTDGLLRLSSSALNNEFFTHAAQSWRERLADGEFTHEMQVRIRQEMEKEKKVEQWKEKFFEDYYGQKLGLTKEESLQQNVGQEEAEIKSGLCVPG		binds
